# According to publication PMC8614642:
# Molecular target: recombinant K38 depolymerase region (residues 147-742) of the tailspike gp46 of Acinetobacter pittii phage vB_Api_3043-K38 (Acinetobacter pittii phage vB_Api_3043-K38)
# Assay: SEC; analytical size exclusion on Superose 6 10/300 GL, 10 mM PBS pH 7.5, 4 °C, 0.75 mL/min, mass estimated from calibration standards
substance,measurement,value
recombinant K38 depolymerase region (residues 147-742) of the tailspike gp46 of Acinetobacter pittii phage vB_Api_3043-K38 (domain or fragment),stoichiometry N,3
